Test results taken from publication PMC5712427.

Molecular target: Full length human APOBEC3G (human) (UniProt Q9HC16)
Assay: time-lapse high-speed AFM

## Full length human APOBEC3G (from UniProt Q9HC16 1-384) (enzyme)
  stoichiometry N: 2
